Measured values reported in the supplement of paper PMC10126150.
± gives the standard deviation of the averaged measurements.

System: ATP
Assay: switch fluorescence ratio, 500 uM ATP over buffer (Cy3 cluster intensity, sum of 5 cycles each) (fold (ratio)); higher = stronger signal-on switching upon ATP binding; sequences stand for … in TCGTCGGCAGCGTCAGATGTGTATAAGAGACAGTTTTTTTTTTTTTTTTTTTTTTTTT…TC
Details: aptamer strand: ATP DNA aptamer (quencher-CACCTGGGGGAGTATTGCGGAGGAAGG + anchor), 100 nM annealed; ATP concentration: 500 uM
Method in brief: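 The fluorescence ratio divides summed target-cycle Cy3 intensity by summed buffer-cycle Cy3 intensity for each cluster and is averaged per switch-domain sequence. Cy3-labelled switching-strand clusters on a modified Illumina MiSeq flow-cell were annealed to 100 nM quencher-labelled ATP aptamer, then imaged in selection buffer and again after 15 min with 500 uM ATP at 22 °C. Five such cycles were run, with NaOH stripping and re-annealing between them, and clusters outside 100-1000 RFU were excluded.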
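Further: ATP exposure 15 min at 22 °C before imaging.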

Sequence | switch fluorescence ratio
GCCCTTTTAC | 1.19 ± 0.074
TGTCGGGCCT | 1.03 ± 0.042
CGACGAACTT | 1.236 ± 0.0059
TAGTTGGGCA | 0.987 ± 0.026
AGAGGTTAAG | 1.03 ± 0.08
CTGTGGGGGG | 0.9869 ± 0.0097
TATACATCTG | 1.0055 ± 0.00054
TTTGGTCGGT | 0.986 ± 0.081
GCTGTATGTT | 0.974 ± 0.022
GTAATTTCGT | 0.99733 ± 0.0004
ATTGTTTTTG | 1.01 ± 0.026
TCCATGTATC | 0.984 ± 0.02
TAATTGATGT | 1.01 ± 0.06
GGGGGCAAGC | 1.25 ± 0.35
CCAGTTCGGA | 0.981 ± 0.059
AAAGGGGGCG | 0.99 ± 0.017
GGGGTAGCGC | 0.974 ± 0.018
CAGGATAACT | 1 ± 0.027
TGAACCGCTA | 1.81 ± 0.16
TTTACGAGTG | 1.03 ± 0.019
CACCGGGGTT | 1.01 ± 0.018
AGGGAATAAA | 1 ± 0.031
AAGGTTACTC | 1.01 ± 0.029
TGCAGAAGGT | 0.992 ± 0.03
TACCTGCAGC | 1.12 ± 0.064
ACCTTGGCTC | 1.1 ± 0.06

Sequence | switch fluorescence ratio
CATAGGGGAG | 1.042 ± 0.01
TTAAAAGGTT | 1.01 ± 0.029
GGAGGCTAGC | 1.01 ± 0.054
TCGTAATAGT | 1.62 ± 0.068
ATGAGGTTTT | 0.991 ± 0.012
TATAAGTCAC | 1.146 ± 0.011
TCGAACGTTT | 1.324 ± 0.0088
ATTGCTCGA | 0.993 ± 0.02
ATTACGGTCA | 1.02 ± 0.038
AATTTCACTT | 1.003 ± 0.0047
CCAGTAGTCT | 1.05 ± 0.019
GGCTATTGCG | 0.995 ± 0.016
GGGGCGGGAA | 0.982 ± 0.05
ACTGGGCCTT | 1.031 ± 0.0083
CGTGATGGGG | 1.04 ± 0.071
TTTTAGGTTC | 1.01 ± 0.018
AAGCTTATAT | 0.9999 ± 0.0089
TTATGTGGGG | 0.993 ± 0.033
TAAAGAGAGA | 1.03 ± 0.012
TCTATTGAGC | 1.032 ± 0.0049
CGGGCGGGAT | 1.04 ± 0.029
GCTGGGAGGA | 1.02 ± 0.04
TGCGGAAAAC | 1.72 ± 0.82
ATTCGCATGT | 1.15 ± 0.04
TTAGTGGGGC | 1.03 ± 0.041
TTATAAAACC | 1.02 ± 0.028

Sequence | switch fluorescence ratio
ACTGTTTGGA | 0.995 ± 0.0037
CCTGGGTGAA | 1.2 ± 0.03
GGTGGATTTG | 0.981 ± 0.062
GGTAGTGAGC | 1.02 ± 0.02
ATTCGGGATA | 1 ± 0.02
TTCATGGTAT | 0.991 ± 0.031
TCGGAGGGAA | 1.03 ± 0.027
ATTGGGTCTA | 0.978 ± 0.021
GGGCAATTGC | 1.01 ± 0.059
TGCGGTAATT | 1.14 ± 0.16
GATTTTGTTA | 1.01 ± 0.025
TTTGGTGTGC | 1.01 ± 0.022
TTTGCGGTTT | 1.02 ± 0.046
TCGACGGGAT | 2.42 ± 0.31
TGTGAGTTGC | 0.949 ± 0.0069
ATAGACGCTA | 1.12 ± 0.017
TTTCTAGGTG | 2.06 ± 0.23
TAAAAAGGTG | 1.12 ± 0.11
GAGTGATGTT | 0.979 ± 0.012
CGTGTATGG | 1.016 ± 0.0031
AAGGTTGATG | 0.982 ± 0.02
GTTTGTGGTA | 0.978 ± 0.011
TCGGTTCCCG | 0.981 ± 0.018
AATTACTTTT | 1.02 ± 0.02
GATATGATAC | 1.077 ± 0.008
GGGACAGCAT | 0.996 ± 0.029

Sequence | switch fluorescence ratio
TTACTGGGGA | 1.04 ± 0.011
TCTCGGCTAT | 2.98 ± 0.2
TGCAGTCTAG | 1.07 ± 0.15
TTTCGTTATT | 1.34 ± 0.73
AAGAGCTAGT | 1 ± 0.013
GTCGGGTACA | 1.008 ± 0.0085
ATTTTTTCGA | 0.981 ± 0.014
CGAGCTTATA | 1.38 ± 0.032
ATGGTGTATC | 0.981 ± 0.026
TCATAGGATT | 0.995 ± 0.04
AGGTTAGGGT | 0.969 ± 0.015
ATTGATGTTC | 0.99 ± 0.053
CGTTAGATGG | 1.01 ± 0.011
GTCTTGGGTA | 0.963 ± 0.024
GTTTAAAGGG | 0.998 ± 0.013
CGGGTAAGT | 1 ± 0.022
CGGGAGAGGA | 0.988 ± 0.033
TTTTGAGGTC | 0.986 ± 0.064
CAGGTGTCTG | 1.13 ± 0.032
TAGAGGGCAG | 1.03 ± 0.023
TAGTTGTCCG | 1.02 ± 0.12
GTATAAAAGT | 1.01 ± 0.03
AAAGAGGGTA | 0.963 ± 0.055
TTGGGTTATT | 0.979 ± 0.029
TGAGAGACGG | 0.968 ± 0.063
TAAATTAGGA | 0.988 ± 0.074

Sequence | switch fluorescence ratio
TATGTAATGT | 0.993 ± 0.031
AAGAGGTGAA | 0.987 ± 0.013
TTATAGGCGC | 1.03 ± 0.029
ATTGGATCGA | 1.01 ± 0.054
AATGAGTGGA | 1.008 ± 0.0063
TTTCGTATTT | 0.992 ± 0.046
ATCTTTATGT | 1.03 ± 0.017
AGACTGATAC | 1.08 ± 0.025
TTTTCTACAG | 1 ± 0.022
TGCATGTCGC | 0.991 ± 0.025
ATTTTTATGG | 0.996 ± 0.036
GAATTCGATC | 1.02 ± 0.029
GCATGGCTGC | 1.03 ± 0.036
GCGGGGGATC | 1 ± 0.03
GAGTTCAGGT | 1.01 ± 0.019
TGTTTCTCGT | 1.01 ± 0.015
CATAGAGTGT | 1 ± 0.021
TTGAAAGGGC | 1.02 ± 0.019
TCGGGGGTTT | 1 ± 0.038
TTGGCTGTAG | 1.13 ± 0.13
TAGCGCAATT | 1.74 ± 0.22
CATTCTTCGC | 1.15 ± 0.029
AATTATTGCA | 0.997 ± 0.043
TATGGGAGGG | 0.952 ± 0.022
TACGGCGGGG | 1.02 ± 0.047
TTACGGCTGC | 1.03 ± 0.058

Sequence | switch fluorescence ratio
TGGATTTAAT | 1.01 ± 0.049
TCCCGGGAAA | 1.04 ± 0.082
TTTTTTGCCA | 1.01 ± 0.051
TGGTTTAGGT | 0.995 ± 0.028
GCTGCCTAAA | 0.9809 ± 0.0019
ACTTGGCAAA | 1.16 ± 0.02
ACTCTGGTAA | 1.065 ± 0.0032
AAGTTCGCCT | 1.09 ± 0.13
AATGCAGGTA | 1.03 ± 0.027
TCCATTTTGT | 1.01 ± 0.05
AGCGTTTGGG | 1.0289 ± 0.001
GGCTGGGGT | 1.02 ± 0.034
GATAAAGTTA | 0.992 ± 0.013
TGGGGGATG | 0.971 ± 0.018
CTTGTAAAGG | 0.9825 ± 0.00043
TGTCCTGGCT | 1.02 ± 0.067
GTTGGGGGTG | 0.992 ± 0.037
TTCTTCTGGG | 0.997 ± 0.017
TAACCGATAT | 0.99434 ± 0.00034
CCTAGCGCGC | 1.09 ± 0.043
CGCATTGGT | 1.31 ± 0.016
AGCTTTCGCG | 0.99 ± 0.03
TTGCACGTAA | 1.66 ± 0.42
